Each block holds one substance with its values, some of them ahead of it.
Legend:
[1] = target: Side-VI (CG34114) complete ectodomain, biotinylated (SPR) (Drosophila melanogaster) (UniProt Q0KI85); assay: SPR; Biacore T100; biotinylated Side-VI captured on an SA chip, Beat-Va or Beat-Vb flowed over; HBSp+ with 500 mM NaCl and 15% glycerol; equilibrium responses fitted to a Langmuir isotherm
[2] = target: Beat-VI complete ectodomain, biotinylated (SPR) (Drosophila melanogaster) (UniProt Q9VAV8); assay: SPR; Biacore 3000; biotinylated Beat-VI or Beat-Ic captured on an SA chip, Side-II or Side-III fragments flowed over; HBSp+ and 1% (w/v) BSA; equilibrium fit, three titration series
Chain of Beat-VI complete ectodomain, biotinylated (SPR) (Drosophila melanogaster) (Q9VAV8 entry or part of it): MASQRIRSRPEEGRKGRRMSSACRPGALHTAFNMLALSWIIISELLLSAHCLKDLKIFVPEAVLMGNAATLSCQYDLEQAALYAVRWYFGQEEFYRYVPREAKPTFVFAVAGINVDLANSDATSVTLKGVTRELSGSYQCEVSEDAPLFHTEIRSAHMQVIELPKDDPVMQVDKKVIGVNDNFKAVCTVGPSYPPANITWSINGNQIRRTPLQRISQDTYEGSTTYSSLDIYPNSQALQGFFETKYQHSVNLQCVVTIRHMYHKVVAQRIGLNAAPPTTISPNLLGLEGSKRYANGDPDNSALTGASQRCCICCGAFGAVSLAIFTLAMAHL

[3] = target: Beat-Ic complete ectodomain, biotinylated (SPR) (Drosophila melanogaster) (UniProt Q7JUP9); assay: as above
Chain of Beat-Ic complete ectodomain, biotinylated (SPR) (Drosophila melanogaster) (Q7JUP9 entry or part of it): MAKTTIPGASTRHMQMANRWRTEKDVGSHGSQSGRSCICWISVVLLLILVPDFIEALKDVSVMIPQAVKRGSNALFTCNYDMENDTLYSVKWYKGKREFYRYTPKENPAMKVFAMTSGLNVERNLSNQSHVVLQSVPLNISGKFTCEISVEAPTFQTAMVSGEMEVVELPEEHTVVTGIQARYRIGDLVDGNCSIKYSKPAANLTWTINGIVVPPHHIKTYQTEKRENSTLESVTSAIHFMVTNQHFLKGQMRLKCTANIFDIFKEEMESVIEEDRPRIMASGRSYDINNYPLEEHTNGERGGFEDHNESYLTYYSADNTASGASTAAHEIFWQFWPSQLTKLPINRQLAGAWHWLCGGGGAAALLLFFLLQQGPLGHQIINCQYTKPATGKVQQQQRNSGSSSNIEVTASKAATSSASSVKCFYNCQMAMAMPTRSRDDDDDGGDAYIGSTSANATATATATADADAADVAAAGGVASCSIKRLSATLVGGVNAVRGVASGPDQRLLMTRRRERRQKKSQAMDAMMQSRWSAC

Chain of Side-VI (CG34114) complete ectodomain, biotinylated (SPR) (Drosophila melanogaster) (Q0KI85 entry or part of it): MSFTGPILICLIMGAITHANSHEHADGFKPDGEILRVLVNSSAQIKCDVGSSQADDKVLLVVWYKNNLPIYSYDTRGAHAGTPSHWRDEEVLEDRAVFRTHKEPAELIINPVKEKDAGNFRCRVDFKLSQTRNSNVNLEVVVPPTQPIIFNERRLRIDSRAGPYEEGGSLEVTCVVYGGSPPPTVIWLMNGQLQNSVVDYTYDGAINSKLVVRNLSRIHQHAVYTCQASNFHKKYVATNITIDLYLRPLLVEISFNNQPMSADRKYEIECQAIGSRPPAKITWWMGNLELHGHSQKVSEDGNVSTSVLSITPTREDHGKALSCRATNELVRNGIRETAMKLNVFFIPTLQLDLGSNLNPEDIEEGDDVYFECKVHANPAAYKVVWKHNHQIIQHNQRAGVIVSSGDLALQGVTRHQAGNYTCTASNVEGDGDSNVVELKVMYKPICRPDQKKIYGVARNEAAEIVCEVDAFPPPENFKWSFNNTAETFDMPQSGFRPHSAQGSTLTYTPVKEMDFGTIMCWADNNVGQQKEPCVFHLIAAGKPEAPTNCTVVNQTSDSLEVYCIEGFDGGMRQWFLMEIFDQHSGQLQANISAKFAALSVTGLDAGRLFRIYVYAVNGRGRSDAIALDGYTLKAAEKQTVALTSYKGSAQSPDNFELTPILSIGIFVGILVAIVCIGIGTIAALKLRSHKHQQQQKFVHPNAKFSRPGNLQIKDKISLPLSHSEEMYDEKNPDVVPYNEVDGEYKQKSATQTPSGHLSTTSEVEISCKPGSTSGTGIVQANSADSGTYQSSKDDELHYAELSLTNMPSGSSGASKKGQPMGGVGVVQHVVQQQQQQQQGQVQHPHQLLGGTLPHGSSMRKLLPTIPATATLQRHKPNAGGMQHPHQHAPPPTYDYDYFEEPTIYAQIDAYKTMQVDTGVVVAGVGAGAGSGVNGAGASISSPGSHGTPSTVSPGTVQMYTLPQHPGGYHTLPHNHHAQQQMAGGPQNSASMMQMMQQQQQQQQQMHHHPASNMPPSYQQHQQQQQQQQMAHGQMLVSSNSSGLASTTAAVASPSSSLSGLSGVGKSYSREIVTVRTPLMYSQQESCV

- Kd [1]: 2300 nM
- koff [1]: > 0.5 s⁻¹
Substance: Beat-Vb complete ectodomain (SPR) (from UniProt Q9VG19 1-328) (domain or fragment)

- Kd [2]: 2780 nM
Substance: Side-II N-terminal single IgSF domain (SPR) (from UniProt Q59DZ1 1-1064) (domain or fragment)

- Kd [3]: 63500 nM
Substance: Side-III N-terminal single IgSF domain (SPR) (domain or fragment)

From article PMC5578738
